# Results: the Human Domainome abundance scans (Beltran et al. 2025)
# ± gives the uncertainty stated by the source.
# B1: Double-stranded RNA-specific adenosine deaminase, residues 296 to 358; numbered along this chain, P55265 (parent)
# chain: MAEIKEKICDYLFNVSDSSALNLAKNIGLTKARDINAVLIDMERQGDVYRQGTTPPIWHLTDK
# Variants of: B1
# Assay: abundance fitness (aPCA) (normalised: wild type 0, dead -1); higher = more abundant; growth selection in yeast, the domain comes from the species named
# Conditions: Homo sapiens
row,Variant,abundance fitness
1,MAEIKEKICDYLFNVSDSSALNLAKNIGLTKARDINAVLIDMERQGDVYRQGTTRPIWHLTDK [P55R],-0.698 ± 0.075
2,MAEIKEKICDYLFNVSDSSALNLAKNIGLTKARDINAVLIDMERQGDVYRQGTTSPIWHLTDK [P55S],-0.288 ± 0.057
3,MAEIKEKICDYLFNVSDSSALNLAKNIGLTKARDINAVLIDMERQGDVYRQGTTTPIWHLTDK [P55T],-0.25 ± 0.059
4,MAEIKEKICDYLFNVSDSSALNLAKNIGLTKARDINAVLIDMERQGDVYRQGTTVPIWHLTDK [P55V],-0.298 ± 0.051
5,MAEIKEKICDYLFNVSDSSALNLAKNIGLTKARDINAVLIDMERQGDVYRQGTTWPIWHLTDK [P55W],-0.721 ± 0.087
6,MAEIKEKICDYLFNVSDSSALNLAKNIGLTKARDINAVLIDMERQGDVYRQGTTYPIWHLTDK [P55Y],-0.491 ± 0.11
7,MAEIKEKICDYLFNVSDSSALNLAKNIGLTKARDINAVLIDMERQGDVYRQGTTPCIWHLTDK [P56C],-0.511 ± 0.35
8,MAEIKEKICDYLFNVSDSSALNLAKNIGLTKARDINAVLIDMERQGDVYRQGTTPDIWHLTDK [P56D],-0.447 ± 0.19
9,MAEIKEKICDYLFNVSDSSALNLAKNIGLTKARDINAVLIDMERQGDVYRQGTTPFIWHLTDK [P56F],-1.13 ± 0.29
10,MAEIKEKICDYLFNVSDSSALNLAKNIGLTKARDINAVLIDMERQGDVYRQGTTPIIWHLTDK [P56I],-0.263 ± 0.15
11,MAEIKEKICDYLFNVSDSSALNLAKNIGLTKARDINAVLIDMERQGDVYRQGTTPKIWHLTDK [P56K],-0.539 ± 0.18
12,MAEIKEKICDYLFNVSDSSALNLAKNIGLTKARDINAVLIDMERQGDVYRQGTTPLIWHLTDK [P56L],-0.656 ± 0.12
13,MAEIKEKICDYLFNVSDSSALNLAKNIGLTKARDINAVLIDMERQGDVYRQGTTPMIWHLTDK [P56M],-1.28 ± 0.34
14,MAEIKEKICDYLFNVSDSSALNLAKNIGLTKARDINAVLIDMERQGDVYRQGTTPQIWHLTDK [P56Q],-0.541 ± 0.1
15,MAEIKEKICDYLFNVSDSSALNLAKNIGLTKARDINAVLIDMERQGDVYRQGTTPRIWHLTDK [P56R],-0.686 ± 0.15
16,MAEIKEKICDYLFNVSDSSALNLAKNIGLTKARDINAVLIDMERQGDVYRQGTTPSIWHLTDK [P56S],-0.57 ± 0.094
17,MAEIKEKICDYLFNVSDSSALNLAKNIGLTKARDINAVLIDMERQGDVYRQGTTPTIWHLTDK [P56T],-0.013 ± 0.091
18,MAEIKEKICDYLFNVSDSSALNLAKNIGLTKARDINAVLIDMERQGDVYRQGTTPVIWHLTDK [P56V],-0.099 ± 0.1
19,MAEIKEKICDYLFNVSDSSALNLAKNIGLTKARDINAVLIDMERQGDVYRQGTTPWIWHLTDK [P56W],-0.818 ± 0.24
20,MAEIKEKICDYLFNVSDSSALNLAKNIGLTKARDINAVLIDMERQGDVYRQGTTPYIWHLTDK [P56Y],-0.693 ± 0.41
21,MAEIKEKICDYLFNVSDSSALNLAKNIGLTKARDINAVLIDMERQGDVYRQGTTPPAWHLTDK [I57A],-0.316 ± 0.051
22,MAEIKEKICDYLFNVSDSSALNLAKNIGLTKARDINAVLIDMERQGDVYRQGTTPPCWHLTDK [I57C],-0.567 ± 0.08

row,Variant,abundance fitness
1,MAEIKEKICDYLFNVSDSSALNLAKNIGLTKARDINAVLIDMERQGDVYRQGTTPPDWHLTDK [I57D],-0.191 ± 0.087
2,MAEIKEKICDYLFNVSDSSALNLAKNIGLTKARDINAVLIDMERQGDVYRQGTTPPEWHLTDK [I57E],-0.257 ± 0.075
3,MAEIKEKICDYLFNVSDSSALNLAKNIGLTKARDINAVLIDMERQGDVYRQGTTPPFWHLTDK [I57F],-0.637 ± 0.064
4,MAEIKEKICDYLFNVSDSSALNLAKNIGLTKARDINAVLIDMERQGDVYRQGTTPPGWHLTDK [I57G],-0.449 ± 0.048
5,MAEIKEKICDYLFNVSDSSALNLAKNIGLTKARDINAVLIDMERQGDVYRQGTTPPHWHLTDK [I57H],-0.185 ± 0.11
6,MAEIKEKICDYLFNVSDSSALNLAKNIGLTKARDINAVLIDMERQGDVYRQGTTPPKWHLTDK [I57K],-0.149 ± 0.065
7,MAEIKEKICDYLFNVSDSSALNLAKNIGLTKARDINAVLIDMERQGDVYRQGTTPPLWHLTDK [I57L],-0.281 ± 0.05
8,MAEIKEKICDYLFNVSDSSALNLAKNIGLTKARDINAVLIDMERQGDVYRQGTTPPMWHLTDK [I57M],-0.008 ± 0.062
9,MAEIKEKICDYLFNVSDSSALNLAKNIGLTKARDINAVLIDMERQGDVYRQGTTPPNWHLTDK [I57N],-0.352 ± 0.081
10,MAEIKEKICDYLFNVSDSSALNLAKNIGLTKARDINAVLIDMERQGDVYRQGTTPPPWHLTDK [I57P],-0.481 ± 0.079
11,MAEIKEKICDYLFNVSDSSALNLAKNIGLTKARDINAVLIDMERQGDVYRQGTTPPQWHLTDK [I57Q],-0.181 ± 0.068
12,MAEIKEKICDYLFNVSDSSALNLAKNIGLTKARDINAVLIDMERQGDVYRQGTTPPRWHLTDK [I57R],-0.125 ± 0.047
13,MAEIKEKICDYLFNVSDSSALNLAKNIGLTKARDINAVLIDMERQGDVYRQGTTPPSWHLTDK [I57S],-0.265 ± 0.057
14,MAEIKEKICDYLFNVSDSSALNLAKNIGLTKARDINAVLIDMERQGDVYRQGTTPPTWHLTDK [I57T],-0.035 ± 0.059
15,MAEIKEKICDYLFNVSDSSALNLAKNIGLTKARDINAVLIDMERQGDVYRQGTTPPVWHLTDK [I57V],-0.108 ± 0.048
16,MAEIKEKICDYLFNVSDSSALNLAKNIGLTKARDINAVLIDMERQGDVYRQGTTPPWWHLTDK [I57W],-0.476 ± 0.073
17,MAEIKEKICDYLFNVSDSSALNLAKNIGLTKARDINAVLIDMERQGDVYRQGTTPPYWHLTDK [I57Y],-0.846 ± 0.11
18,MAEIKEKICDYLFNVSDSSALNLAKNIGLTKARDINAVLIDMERQGDVYRQGTTPPIAHLTDK [W58A],-0.426 ± 0.057
19,MAEIKEKICDYLFNVSDSSALNLAKNIGLTKARDINAVLIDMERQGDVYRQGTTPPICHLTDK [W58C],-0.384 ± 0.095
20,MAEIKEKICDYLFNVSDSSALNLAKNIGLTKARDINAVLIDMERQGDVYRQGTTPPIDHLTDK [W58D],-0.434 ± 0.075
21,MAEIKEKICDYLFNVSDSSALNLAKNIGLTKARDINAVLIDMERQGDVYRQGTTPPIFHLTDK [W58F],-0.234 ± 0.11
